Results taken from the DeepSol protein solubility set.

Test: soluble on expression in E. coli; label from the status in PepcDB or PDB records

Row | Sequence | soluble on expression in E. coli
1 | MTPLSSPLSQYWQTVVERLPEGFTETSLSVQAKSVLTFSDFALDSVIAHPEWLAELESASPQADEWRHYAGWLQEALAGVCDDASLMRELRFFRRRIMVRIAWAQTLSLVDDETILQQLSHLAETLIVGARDWLYAACCREWGTPCNPQGVPQPLLILGMGKLGGGELNFSSDIDLIFAWPEHGETRGGRRELDNAQFFTRLGQRLIKALDQPTMDGFVYRVDMRLRPFGDSGPLVLSFAALEDYYQEQGRDWERYAMVKARLMGDNDDAWSRELRAMLRPFVFRRYIDFSVIQSLRNMKGMIAREVRRRGLKDNIKLGAGGIREIEFIVQVFQLIRGGREPSLQSRSLLPTLDAIAALHLLPENDVAQLRVAYLFLRRLENLLQSINDEQTQTLPADDLNRARLAWGMKAENWPQLVGELTDHMANVRRVFNELIGDDEADTPQEEERSEPWREVWQDALQEDDSTPVLAHLADEERRQVLTLIADFRKELDKRPIGPRGRQVLDQLMPHLLADVCSREDAAVTLSRITPLLAGIVTRTTYLELLSEFPGALKHLIMLCAASPMIASQLARYPLLLDELLDPGTLYQPTATDAYRDELRQYLLRVPEEDEEQQLEALRQFKQAQLLRIAAADIAGTLPVMKVSDHLTWLAEAMIDAVVQQAWTQMVARYGQPAHLDERQGRGFAVVGYGKLGGWELGYSSDLDLIFLHDCPMDVMTNGEREIDGRQFYLRLAQRIMHLFSTRTSSGILYEVDARLRPSGAAGMLVTSADAFADYQQHEAWTWEHQALVRARVVYGDPQLTSQFDAVRRTIMTTARDGKTLQTEVREMREKMRAHLGNKHRDRFDIKADEGGITDIEFIAQYLVLRYAHEKPKLTRWSDNVRILELLAQNGIMDEHEAQALTVAYTTLRDELHHLALQELPGHVAQTCFSKERALVQASWRKWLVAV | not soluble
2 | MAHHHHHHMSLYQRKTILAPMVRVGNVGFRVFCAAQGADVVFTEEIVAAKLARCHREVRVHNDAAGPMIEFVAYELFKNQYKRSVVFTTPARDMANQSGEGAPVVLQLGVSDAAVGVAAALLCCEDVDGIDVNMGCPKKFSVDNGMGAALMRDTSKAASILFALDDALNAPDKLAARGRRVPLSFKIRLLETAEATADMLISIMEKVGANRVHAITLHARTVNQVAEDSPHYDRAAEAVRRLRSHPLFKEMCFVLNGSVRSRDDGAVKMAQFGFDAIMIARHAMWDMSVFSRHVSSAGGRSSLTSEDAEAPLASTSWMDLYRSLLRTHAKYCTPFTYVKYHLTRSIPCIPALRHLMTAVQQEATCYEDLAKIFSLPLEEQESMRGVAAVEMVACVPNREVTLGVVSSNAIKHNDAARSGRVRSEKSAATPAAKKPRGE | soluble
3 | YYPKIAEEVYLATLDNGMSLSIIKKKGFIEKAAFLSTNFGALDNRFYIDGKLQTYPAGIAHFLEHKLFEDDQGRDVTLDFVKLGADVNAFTTLDRTTYYFSTIDHFEESLELLLKFTSEFTSSEDTVNHEKRIIEQEINMYQDDPDYRVYLGCLQSLYPNTILGQDIAGSIDSIKKITTKDLKNNFDYFYRPENCHLVLIGNFDIEQIYRFVKETRSEFTISHKTVEK | not soluble
4 | MIGKRFFQTTSKKIAFAFDIDGVLFRGKKPIAGASDALKLLNRNKIPYILLTNGGGFSERARTEFISSKLDVDVSPLQIIQSHTPYKSLVNKYSRILAVGTPSVRGVAEGYGFQDVVHQTDIVRYNRDIAPFSGLSDEQVMEYSRDIPDLTTKKFDAVLVFNDPHDWAADIQIISDAINSENGMLNTLRNEKSGKPSIPIYFSNQDLLWANPYKLNRFGQGAFRLLVRRLYLELNGEPLQDYTLGKPTKLTYDFAHHVLIDWEKRLSGKIGQSVKQKLPLLGTKPSTSPFHAVFMVGDNPASDIIGAQNYGWNSCLVKTGVYNEGDDLKECKPTLIVNDVFDAVTKTLEKYA | soluble
5 | MERISLSFVGDVMLAGSATDTLQRYGYSYPFSATAAELRRSDLVVGNLEAPLTDGGREFRAKRFRFKASPVAAAALKRAGFSVMTLANNHMMDFGADGLSDTIHHLNRNGIAFAGAGPSIADARREASVTVRGQTVAFLAYSLTQPIEFFATEGRPGTAPGYAGHYLADIRRVRSSADHVVVSFHWGQERAALPSPYQIETAHRAIDAGADIVIGHHPHVLQGIEIYRGSPIFYSLGNFAFGSRSPSADRSIIARVTLGEGPPIVEVIPLNVLFREVRFQPAILTGRKAADVVDRLNRLSAPFSTVITSTAGSHLVAPAEANARLARRQLEHHHHHH | not soluble
6 | MTIIKLERRDVRLLLLYEFRLGHSAMEAERNICGAMGEGALSYNTAKSWFQKFKNGDFSLEEIERSGRPVELNEEDLVKLVEEEPRLSLREMEEKLECCHSTIARHLGRLGFTSKLGIWVPHELSASQKLTRVNVCTQLLTFRRKFDWLNNLVTGDEKWVLYVNHSRKRQWLPIGEKGIPTPKPDLHPKKIMICVWWGVQGPVHWELLPTNKTITADYYCAQLDRVAEKTNGKYEKLYFLHDNARPHVAKKTFQKLQDLGWTVLPHPPYSPDLAPTDYHLFLSLSDYMRDKQFDDEEHLKTELSTFFSSRSPDFFSRGIMMLPSKWQQVVDTNGEYLCE | not soluble
7 | MESIKVVIVGGGQAGIAMGYYLVKEKVPFMILDANEQVGDSWRNRYDSLVLFTPRTYSQLPGFPMDGAPNGFPTKDEMASYLQQYANHFNLPMRHHTKVDRVTRQQNGRFHLKTTNGWIEAEKVVIATGAFQKPYLPPVLDSANNEMSQVHSSAYRNPAQIPGKSVLVVGGGNSGAQIAVELAKERNVTMAISHPFRFLPLKLLNKSMFSWLEWGGLLYAGIDTTRGRWFKKQKDPIFGKELKSLIKKGQIHLKPRVMNVQGKEVEFADHSRLSFDRIIWSTGFSPSYEWIDIDGVIATNGWPIHNRGITNIRGLYFLGLPWQYQRGSALVCGVGRDAEYLVPFIKHGDK | not soluble
8 | MSKQLLALNIDGALLRSNGKIHQATKDAIEYVKKKGIYVTLVTNRHFRSAQKIAKSLKLDAKLITHSGAYIAEKIDAPFFEKRISDDHTFNIVQVLESYQCNIRLLHEKYSIGNKKKVNSNLLGKALIHPSDPIFYPVQFVESLSDLLMDEPVSAPVIEVYTEHDIQHDITETITKAFPAVDVIRVNDEKLNIVPKGVSKEAGLALVASELGLSMDDVVAIGHQYDDLPMIELAGLGVAMGNAVPEIKRKADWVTRSNDEQGVAYMMKEYFRMQQRKGFLDKFHMKRV | not soluble
9 | MAFSASIEDYALIGDQQSAALVARDGSIDWLCLPRFDSPACFAALLGDEHNGKWRIAPKGAGPCTRRAYRTDSLVLDSEWDTPEGTLRVTDLMPQRDSAPDLVRIVEGLRGRVTVRSAIRLRFDYGLEHHHHHH | not soluble
10 | MKMLVGKIPSELLAKILEKLKPGDKVIVGPKVGIDATAIDFGDYVLVASTDPITGTEEKIGFYAVNINANDVATFGARPKWFLVTILLPEGSEFNDVITIMDEVREVAEGMGISIVGGHTEVTPGLKKPIVVGTMLGEVEKENLVVPNPRPGDAIILTKGAGIEGTSIIAHEREEELKGVFGSNFVERAKAFINEISIVREALLSREFATAMHDPTEGGIANGLHEMADINGLGFRIFANKVIIREETRKICHFYDLDPLALISSGALLISTPRDHAKFLIERLLSHGIQASIIGEFLAEKKRVIIENGAERPLKRPESDELWKVV | soluble
11 | MSEITTLQPSLLWKWFDQICAIPHPSHYEDTLANFIVNWAKEKHFFVERDEVGNVLIRKPATKGMENHTPVVLQAHLDMVPQANEGNPHDFTKDPIQPYIDGEWVKARGTTLGSDNGIGLASTLAVLESNDLAHPPLEVLLTMTEETGMDGAKGLRHNWLQSEILINTDTEEIGEIYIGCAGGINANFEIPVQYETNTFEHSAQITLKGLRGGHSGGDIHTGRANAIKVLARVLAKLSQNQPHFALSEIRGGSIRNAIPREAAAVLAFNGDVKTIESAVENLAVVLKEELAIAEPNFTLFVESAEKAPTVFTAQSTQTVINALNVLPNGVIRNSDVVKNVVESSLSVGVLKTEGNVVKSTILVRSLIESGKYYVTEMLSSLAILANAKVEFSAPYPGWQPVNDSTILDVTRKHYAEVLGEQPVVKVIHAGLECGLLKEHYPNIEMISVGPTIRNAHSPDEKVEIATVQTYWDLLTRVLADIPAK | soluble
12 | MTPLSALTSNPAPSPPPKFALGKCPATAIHVVSVLRPNRQRFCYEKTDAGDLIPHKCLICQPILTEKHISPYYAVYSDLLEDFVLFGYNTMTGKMEQFIYAFKTDCFVEVNRPEIKYNPAFLVKGNVVVALNGPEGELVVIERDCRGLLSKESTSYGQFRTLPTAALRTLTLQDLERDRWDRAANSDEVKISSGNESFDRLYAEYQKNLPRFQVRQCLHLNKEFLCVYSKTSGDYTRLEYIDETGDFQKISCTLCTCEVTESNLIPLYVERNASELVIHVHNTENNQIEQYIYDVRTFGFVQVKRNLVYDPKKITSGLNLFMAENIDNRKVYMIMRGRDGRLQKETSGSGGFEKMQPVAVKTFQVQWVEMKTEFEKKKASTERVEPQHPVQTEGEDIMETVLAMVESFNCDLRKELGLTQDQEIPRKAPRVESAETEENIVKNLEKLQIAKDPEEPTTAASEGGNTYGYQELDDTMSEGLLEKEAESKHQDANEPEPVKNVTYEPDVAAMDKKKKRRELKSRLNKINAQIDELEKRRMERAGKKQVVSSSVPSEEAAQVEAPASPALAENTNQISNEETPKIDIFEGYNGSFLFGTNTSKEWIVEDIRNHMVGKLLKAFWPRIQNVEEMNGELFKKLIANARKCETEILEASNDRDEYYRLMQLTVDQILKKTLKKDQRATEHNHQQPTQSSDELAKNHEKN | not soluble
13 | MVRLTTELFAERPQFVNSVNMREINLRGQKIPVIENMGVTRDQFDVIDLTDNDIRKLDNFPTFSRLNTLYLHNNRINYIAPDIATKLPNLKTLALTNNNICELGDIEPLAECKKLEYVTFIGNPITHKDNYRMYMIYKLPTVRVIDFNRVRLTEREAAKKMFKGKSGKKARDAIQKSVHTEDPSEIEPNENSSGGGARLTDEDREKIKEAIKNAKSLSEVNYLQSILASGKVPEKGWNRQMDQNGADGEAMES | not soluble
14 | MTFNHKKMEPKWQQYWSEHNTFKTTEDKNKENFYALDMFPYPSGAGLHVGHPEGYTATDILSRMKRMQGKNVLHPIGWDAFGLPAEQYAIDTGNDPEEFTALNIANFTRQIKSLGFSYDWDREINTTDPEYYKWTQWIFEKLYENGLAYEAEIAVNWCPALGTVLANEEVIDGKSERGGFPVFRKPMRQWMLKITAYADRLLDDLDLVDWPENIKDMQRNWIGRSEGAEVTFKIKDSDETFNVFTTRPDTLFGATYTVFAPEHELIEKITTPEQKEAVEAYKKQVELKSELERTDLAKDKTGVFTGAYAINPINGEEVPIWIADYVLIQYGTGAIMAVPAHDERDFEFAQQFGLNIRPVLEGGDVTKEAFTGDGPHINSDFLNGLAKAEAITAAIDWLEKEGIGSRKITYRLRDWLFSRQRYWGEPIPVIHWEDGETTLVPEEELPLLLPKATEIKPSGTGESPLANLHDWVNVTDENGRKGRRETNTMPQWAGSSWYFLRYIDPKNSEAIADKEKLAEWLPVDVYIGGAEHAVLHLLYARFWHKFLYDIGVVPTKEPFQKLFNQGMILGENNEKMSKSRGNVVNPDEVVEKYGADTLRLYEMFMGPLEASIAWNENGLEGARKFLDRIWRLLVTEEGTLAEKVTTDANANLEKAYHHMVKTVTNHYENLRFNTGISQLMIFINEAYKQDTIPKQYVEGFVQLLSPIAPHLAEELWEILGHTETISYVAWPTYDETKLVEDEVEIVLQVNGKVKSKITVAKSLGKEELEKIAQEDNKMKENLEGKTIRKVIVVPGKLVNIVAN | not soluble
15 | MKVAVLPGDGIGPEVTEAALKVLRALDEAEGLGLAYEVFPFGGAAIDAFGEPFPEPTRKGVEEAEAVLLGSVGGPKWDGLPRKIRPETGLLSLRKSQDLFANLRPAKVFPGLERLSPLKEEIARGVDVLIVRELTGGIYFGEPRGMSEAEAWNTERYSKPEVERVARVAFEAARKRRKHVVSVDKANVLEVGEFWRKTVEEVGRGYPDVALEHQYVDAMAMHLVRSPARFDVVVTGNIFGDILSDLASVLPGSLGLLPSASLGRGTPVFEPVHGSAPDIAGKGIANPTAAILSAAMMLEHAFGLVELARKVEDAVAKALLETPPPDLGGSAGTEAFTATVLRHLA | soluble
16 | MRGFAQVWHGLREKKRAECTPLNAFLTYVTLPWNSILNDLLSERQKRPILTFEFDAPAHNHD | not soluble
